Laboratory results: the DeepSol protein solubility set

Assay: soluble on expression in E. coli; label from the status in PepcDB or PDB records

Row | Sequence | soluble on expression in E. coli
1 | MVKSFLMLGQSNMAGRGFINEVPMIYNERIQMLRNGRWQMMTEPINYDRPVSGISLAGSFADAWSQKNQEDIIGLIPCAEGGSSIDEWALDGVLFRHALTEAKFAMESSELTGILWHQGESDSLNGNYKVYYKKLLLIIEALRKELNVPDIPIIIGGLGDFLGKERFGKGCTEYNFINKELQKFAFEQDNCYFVTASGLTCNPDGIHIDAISQRKFGLRYFEAFFNRKHVLEPLINENELLNLNYARTHTKAEKIYIKSMDFALGKISYDEFTSELMKINNDLEHHHHHH | soluble
2 | SEEYDTNFYKKLFDAMFVNEDELKEMGKDPKEYMENLLKEAEEKSLKEKMELYKKYNVIEIDSLEDEYQSTAEGYGNLEDVKKFIQKYDINGVYDGYTLLYTYSGYRGETNIIEFLIENNADIYKKSINGKTPLYSAVDDYFYDAAEVILKHYKDNDDINDEFLLAVNNENEPMLRILLKKKFLFFGNKFKMNLDKGLEIALDKGNKDIAAELVLSGAKTDNFLYYFK | not soluble
3 | MSQTGEKGKFPDAAGYVGFANLPNQVHRKSVKKGFEFTLMVVGESGLGKSTLINSLFLTDLYPERYIPGAAEKIERTVQIEASTVEIEERGVKLRLTVVDTPGYGDAINSQDCFKTIIQYIDNQFERYLHDESGLNRRHIVDNRVHCCFYFISPFGHGLKPLDVEFMKAIHSKVNIVPVIAKADTLTLKERDRLKRRILDEISEHGIRIYQLPDADSDEDEEFKDFVPNRCIWSSLQFYQMHIIAITFIDIMFVFKKAAHVISTTIIMVKLNIKCQ | not soluble
4 | MRCMSDDHTHVQEFFEARAADWDSRFPDDGPAHAAAVAELGLREGDRVLDAGCGTGRALPSLRAAVGSSGVVVGVDLTPAMLAAAARAGRGRDGHLLLADVTRLPLGTESLDAVFAAGLIAHLPEPAENLRELARVVRAGGTLALFHPIGRAALAARQGRQITPDDLRAEANLGPLLAGSGWRMTSYVDEDARFLALAVRVKLEHHHHHH | not soluble
5 | GPLGSPQFMNPAAEAEFNILLATDSYKVTHYKQYPPNTSKVYSYFECREKKTENSKLRKVKYEETVFYGLQYILNKYLKGKVVTKEKIQEAKDVYKEHFQDDVFNEKGWNYILEKYDGHLPIEIKAVPEGFVIPRGNVLFTVENTDPECYWLTNWIETILVQSWYPITVATNSREQKKILAKYLLETSGNLDGLEYKLHDFGYRGVSSQETAGIGASAHLVNFKGTDTVAGLALIKKYYGTKDPVPGYSVPAAEHSTITAWGKDHEKDAFEHIVTQFSSVPVSVVSDSYDIYNACEKIWGEDLRHLIVSRSTQAPLIIRPDSGNPLDTVLKVLEILGKKFPVTENSKGYKLLPPYLRVIQGDGVDINTLQEIVEGMKQKMWSIENIAFGSGGGLLQKLTRDLLNCSFKCSYVVTNGLGINVFKDPVADPNKRSKKGRLSLHRTPAGNFVTLEEGKGDLEEYGQDLLHTVFKNGKVTKSYSFDEIRKNAQLNIELEAAHH | soluble
6 | MAHHHHHHMEVGQRCRLLVADCTYTHATNSSDDIHGNGFTVTGVVVGVRPHAEEPWRRLYYVHCTRIEFGTELARQRRKAAAPSWSGAPLSTIGSGTIHSCNELRAAGGSFVSNGGYHYRYDGWYDAFALTPLSADVALANNTAAMASAGSSPPEPPATVSEPRDDEGAASASAVSHLPGQHRDAPEEWVAAMERDTAVCEVVYLCYAFQPWFSAPYSALQYLALPEDDVCHSVYVCHRCLSPFFTREQYYVHLAGEYCRLRTPPGRLIYHDEDAGYKAFLVDGAKNLHYGRCLSLLSKQLIESKVLSNDVDLYEYVVVTIPRASLPYMPAALPSCTSAEQCGVANLVALSREGFRQAASDFDAEDWDGDAVMGYFSRLKHHPDHTLSCIVTLPMFQRTRVATFLLDVAYWMTRQRQRLCGCGFCGRSGGAISRPFSPHGQSLLLSYWRRALLRSLAEVAPLHRRASRTAQPELRFTLAELRALMDIPIHTNDMETLLLHSEFAFYQPAAANAAAARYSDDDDSASPPTSPTSARRRQRHERGSTSTSLKDSQASSGSKLSSSSAGGSAGNGGSSTSGARYTGTLVLEAALLEAAAELHTKTPRSCVMFDKRWLVKDGRGAYAYDTPYYHH | not soluble
7 | MLGNLKPQAPDKILALMGEFRADPRQGKIDLGVGVYKDATGHTPIMRAVHAAEQRMLETETTKTYAGLSGEPEFQKAMGELILGDGLKSETTATLATVGGTGALRQALELARMANPDLRVFVSDPTWPNHVSIMNFMGLPVQTYRYFDAETRGVDFEGMKADLAAAKKGDMVLLHGCCHNPTGANLTLDQWAEIASILEKTGALPLIDLAYQGFGDGLEEDAAGTRLIASRIPEVLIAASCSKNFGIYRERTGCLLALCADAATRELAQGAMAFLNRQTYSFPPFHGAKIVSTVLTTPELRADWMAELEAVRSGMLRLREQLAGELRDLSGSDRFGFVAEHRGMFSRLGATPEQVKRIKEEFGIYMVGDSRINIAGLNDNTIPILARAIIEVGV | soluble
